Measured values as given in the supplement of paper PMC9170038.

Test system: MS2 coat protein
Assay: apparent KD of MS2 coat protein; designed switch direction (-1 OFF switch, 1 ON switch): -1; higher = weaker reporter binding
How it was run: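 The reported apparent KD is a per-design median over clusters, from curve fits of normalised cluster fluorescence. Protein titrations used SNAP-549-labelled MS2 coat protein, doubled from 0.7 or 1.5 nM to 3 µM, in Tris-HCl pH 7.5 buffer with KCl, MgCl2, BSA, DTT, tRNA and Tween-20, with no input, 200 uM small-molecule ligand, or an oligonucleotide input. The RNA switches were transcribed on Illumina chips by stalled E. coli RNA polymerase.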

[1] = Eterna round: R95, input ligand: FMN 200 uM
[2] = Eterna round: R95, input ligand: microRNA oligo, concentration not stated
[3] = Eterna round: R95, input ligand: none
[4] = input ligand: microRNA oligo, concentration not stated

| Sequence | apparent KD of MS2 coat protein (input ligand: FMN 200 uM) | apparent KD of MS2 coat protein (input ligand: none) | apparent KD of MS2 coat protein [1] | apparent KD of MS2 coat protein [2] | apparent KD of MS2 coat protein [3] | apparent KD of MS2 coat protein [4] |
| --- | --- | --- | --- | --- | --- | --- |
| UAAACAUGGAUAUAACAGUACAUGAGGAUCACCCAUGUUAAUAUGAUAGAUUAUAACAAGUUUUUUUGUCGUCUUAA [Tabletop] (Eterna round: R97, puzzle: Sensor, turn-off variant 1) | 0.085 µM | 0.088 µM |  |  |  |  |
| UUUAAUUUUUUUUUUUUACAAGCUUUUUGCUCGUCUUAUACAUGAGGAUCACCCAUGUGGAUGGGAGGUAAAUUAUC [JMF 74] (puzzle: Sensor v3, turn-off variant 2) |  |  | 0.0254 µM | 0.153 µM | 0.0253 µM |  |
| UUAAUUAAUUAAGGCUGAAGAUCACAUGAGGAUCACCCAUGUAAGGAUAUCAGCUCGUUUAGAGCUGAGAAGGUACAUGCAGCC [ExNG3/18-B2] (Eterna round: R96, puzzle: Exclusion NG 3) | 0.16 µM | 0.37 µM |  |  |  | 0.568 µM |
| CGCUGGUGAGGAUAUGGGUGUGGUUACAUGAGGAUCACCCAUGUGGUGUCGCAUGUGGGUCCAGAAGGCGCGGGUG [-25.2, -23.4 kcal, 17% A] (Eterna round: R97, puzzle: Exclusion 5) | 0.856 µM | 0.585 µM |  |  |  |  |
| CUCCGACAUGAGGAUCACCCAUGUUAGGAUAUCCCACGCAGGUAGUGAGAGAAUCUGUGGAGAAGGAGCAGGGU [Eternabot (L2) Solution 74] (Eterna round: R97, puzzle: Exclusion 1) | 0.0219 µM | 0.0245 µM |  |  |  |  |
| UACAUGAGGAUCACCCAUGUUUUGUCGUGUAUGGUAUUUAUCUAGGAUAUCAUAUUAUUUAUUUAUGAGAAGGAGAAUAUUAAU [JMF's solution 95] (Eterna round: R96, puzzle: Exclusion NG 3) | 0.0458 µM | 0.0269 µM |  |  |  | 0.0271 µM |
| GGUGAGCUAGGAUAUGCUUUGGGAAAGCAUUCCUUCGAUAAACUUGAGGAUCACCCAAGUAGAAGGAGCUUGCC [salish99_ex2_r4_019] (Eterna round: R97, puzzle: Exclusion 2) | 0.0187 µM | 0.0119 µM |  |  |  |  |
| UAUUAAACAAGCGGAUCCCACAUGAGGAUCACCCAUGUGCUCGUCUUAUAAGGUACUGUGACGAAAGUCACGGUACC [Sensor 3, v1 - 91 v13] (Eterna round: R97, puzzle: Sensor, turn-off variant 1) | 0.025 µM | 0.0289 µM |  |  |  |  |
| CGUGCGUAUGUGAGGAUAUGCUGGUCCUUGGAUCAGCAGAAGGCACAUGAGGAUCACCCAUGUGGUGUCGUACG [salish99_Bmod_Ex4_018] (puzzle: Brourd's mod of Exclusion 4) |  |  | 0.0187 µM | 0.182 µM | 0.395 µM |  |
| GGAGGAGAGGUAAGGAUAUGGUGGUGGAAACACCACCAGAAGGUACAUGAGGAUCACCCAUGUAAGGAAGGAGG [AK-MS2ROC-r4-Bmoexclusion4-17.1] (Eterna round: R97, puzzle: Brourd's mod of Exclusion 4) | 0.0267 µM | 0.0266 µM |  |  |  |  |
| UAUUAACAAGCUAGAUCCCACAUGAGGAUCACCCAUGUGCUCGUCUUAUAAGGUACUGUGACGAAAGUCACGGUACC [Sensor 3, v1 - 78] (puzzle: Sensor v3, turn-off variant 1) |  |  | 0.0378 µM | 0.188 µM | 0.0323 µM |  |
| UACAAGCUGCUCUAAUAGAACAUGAGGAUCACCCAUGUUGCUAAACAUGAAAGAAUUGGCUCCGCAUGGAUUGCUCG [Eternabot (L2) Solution 9] (Eterna round: R97, puzzle: Sensor, turn-off variant 1) | 0.0319 µM | 0.0336 µM |  |  |  |  |
| UAGUUAAUCACAGGAUAUCGCCUCUUAUUACAUGAGGAUCACCCAUGUUUAGUUAGUUACAUGUUCGAGAAGGGUGUUGUAGUU [JR_ExcNG2_Sub042] (Eterna round: R96, puzzle: Exclusion NG 2) | 0.714 µM | 0.579 µM |  |  |  | 0.408 µM |
| AAGAAGAAGUAAGGAUAUGAAGAUUUGGUGGUGACAUGAGGAUCACCCAUGUGAAAACAAUAAGAUCAGAAGGUAUAAGAAGAA [AK ExNG2-3] (Eterna round: R96, puzzle: Exclusion NG 2) | 0.522 µM | 0.405 µM |  |  |  | 0.434 µM |
| UAAUUGAUUAAUAGAUUAUACAUGAGGAUCACCCAUGUAGAUCCUACGUGCCAUUUAAGUAGCUCGUCUUAUUAUUA [Sensor-V1 #65] (Eterna round: R97, puzzle: Sensor, turn-off variant 1) | 0.0594 µM | 0.0645 µM |  |  |  |  |
| GUAGCUUCGGCUACUACAAGCUUUUUGCUCGUCUUAUUAACAUGAGGAUCACCCAUGUUAAUGAGACCUCAUGUAUU [Sensor v3 - turn-off variant 2 - 6] (puzzle: Sensor v3, turn-off variant 2) |  |  | 0.0134 µM | 0.017 µM | 0.0109 µM |  |
| UUGUUGUAUGUAGGAUAUGCAUAUUAUUAUUAUGCAGAAGGACAUGAGGAUCACCCAUGUAUGUUAUUAUUAUAUGUUAUAUGU [Title] (Eterna round: R96, puzzle: Exclusion NG 1) |  |  |  |  |  | 0.0256 µM |

| Sequence | apparent KD of MS2 coat protein (input ligand: FMN 200 uM) | apparent KD of MS2 coat protein (input ligand: none) | apparent KD of MS2 coat protein [1] | apparent KD of MS2 coat protein [2] | apparent KD of MS2 coat protein [3] | apparent KD of MS2 coat protein [4] |
| --- | --- | --- | --- | --- | --- | --- |
| AAAUCACAUGAGGAUCACCCAUGUGAGGAUAUGAUACUAUGUACUUCGGUACAUAGUAUCAGAAGGCAUAUGGA [Ex1-3: 32] (Eterna round: R96, puzzle: Exclusion 1) | 0.0394 µM | 0.0237 µM |  |  |  | 0.0206 µM |
| GAAGAAGAGAGAAUAGAAAACAUGAGGAUCACCCAUGUUAAGAGAUGAGGGUGUAAUAGGAUUUUUGCUCGUCUUAU (puzzle: Sensor v3, turn-off variant 1) |  |  | 0.0383 µM | 0.054 µM | 0.0405 µM |  |
| UUGUUGUAUGUAGGAUAUGCGUAUUAUUAUUAUGCAGAAGGACAUGAGGAUCACCCAUGUAUAUUAUUAUUAUAUAUUAUAUAU [Title] (Eterna round: R96, puzzle: Exclusion NG 1) |  |  |  |  |  | 0.022 µM |
| AAGAGCGUAGGAUAUACAUGAGGAUCACCCAUGUGUGGAGGACCUGGCCACAUAAGGAGUAGAAGGGCGCAUCU [Eternabot (L2) Solution 92] (Eterna round: R97, puzzle: Exclusion 3) | 0.11 µM | 0.087 µM |  |  |  |  |
| AAUUUACAUGAGGAUCACCCAUGUGAGGAUAUAUACAAAGAAGUGUUAUUAAGAAUGUAUAGAAGGCGCGUGAU [JR_Exc1_Sub039] (Eterna round: R97, puzzle: Exclusion 1) | 0.0736 µM | 0.062 µM |  |  |  |  |
| AAAGAGUGAGGAUAUACAUGAGGAUCACCCAUGUACGUAAUACAAUACGGGUGACGACGUAGAAGGCAUUGCUG [Eternabot (Original) Solution 28] (Eterna round: R97, puzzle: Exclusion 3) | 0.198 µM | 0.781 µM |  |  |  |  |
| GAUCUGACAGGAUAUACAUGAGGAUCACCCAUGUGCGAGCUAGCGAAAGCUAGCUUAGGUAGAAGGGUCAGAUC [Ex3 dot plot directed v3] (puzzle: Exclusion 3) |  |  |  | 0.0107 µM |  |  |
| CAUACUGAAGUUAGGAUAUUCGAACGUAUACGGAUGGAGAAGGGACAUGAGGAUCACCCAUGUAGAUAGUAAAG [EX-4 Malc #11] (puzzle: Brourd's mod of Exclusion 4) |  |  | 0.0231 µM | 0.0215 µM | 0.0231 µM |  |
| CGUCGACAUGUAGGAUAUCUGCACGAUUAGUGCAGAGAAGGACAUGAGGAUCACCCAUGUAGAUCACGACGAAUUAAUUUAAUU [ENG1/6-C1] (Eterna round: R96, puzzle: Exclusion NG 1) | 0.476 µM | 0.527 µM |  |  |  | 0.298 µM |
| CAGCUGAAAGUGAGGAUAUCGACUGCUUCGGCAGUCGAGAAGGCACAUGAGGAUCACCCAUGUCUCAACAGCUG [BmEx4/1-A4] (Eterna round: R97, puzzle: Brourd's mod of Exclusion 4) | 0.0703 µM | 0.0207 µM |  |  |  |  |
| GAUUGACAUGAGGAUCACCCAUGUGAGGAUAUCGGCCGGACCUUGUUAGCUUCCAUCGCGAGAAGGCACAUAGG [Exclusion 1 V32] (puzzle: Exclusion 1) |  |  |  | 0.0252 µM |  |  |
| AAAAGGCAGGGAGGAUAUGCUUGCCUGGGUCGUCUUCAAACAUGAGGAUCACCCAUGUAGUCGACGCAGAAGGCCCUCAAAGAA [Mat - Exclusion NG 2 - Mod of JL - D62] (Eterna round: R96, puzzle: Exclusion NG 2) | 0.0377 µM | 0.0572 µM |  |  |  | 0.0408 µM |
| GUGUGCAGAGGAUAUACAUAGUAAAAUAAAAUAUAAUAGGGACAUGAGGAUCACCCAUGUAGAAGGCUGAGUGU [Excluse me!! 23 - Jieux - Exclusion 2] (puzzle: Exclusion 2) |  |  | 0.0512 µM | 0.0417 µM | 0.0461 µM |  |
| UUGUUUGUAGUGAGGAUAUCGUUGAGGAAGAGGAUCGAGAAGGCACAUGAGGAUCACCCAUGUUAGAUGUGGUU [JR_BMOE4_Sub082] (Eterna round: R96, puzzle: Brourd's mod of Exclusion 4) | 0.261 µM | 0.161 µM |  |  |  | 0.114 µM |
| UCGCCGCCCUUGGGCGGCGACAUGAGGAUCACCCAUGUCAAGCUUUUUGCUCGUUUUAUAGCCGGCCUUGGCCGGCA [Olib_3] (Eterna round: R97, puzzle: Sensor, turn-off variant 1) | 0.0279 µM | 0.0294 µM |  |  |  |  |
| CGGCGGGUCGCGCUGGUCCACAUGAGGAUCACCCAUGUUCCGGCACGCUGAAGGCACACGCUUUUUGCUCGUCUUAU [Sensor V1 S1] (Eterna round: R97, puzzle: Sensor, turn-off variant 1) | 0.0322 µM | 0.035 µM |  |  |  |  |
